In the nanobody polyreactivity screen of Harvey et al. (2022):

Experiment: yeast display, Sf9 membrane polyspecificity reagent, FACS + sequencing; frameworks hold sequencing errors
How it was run: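 After 36–48 hours of galactose induction, yeast (Saccharomyces cerevisiae BJ5465) displaying a synthetic nanobody library were stained at 4 °C for 1 hour with 10% biotinylated, detergent-solubilized Sf9 membrane reagent. Streptavidin microbeads enriched the stained cells before FACS sorting into low and high (top ~1%) gates on anti-HA and streptavidin fluorescence. Each clone's polyreactivity label reflects its gate of origin.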

Sequence	polyreactivity (PSR sort gate)
QVQLVESAGALVQAGGSLRLSCAASGSTYWRYTMGWYRQAPGKERELVAAISTRGGSTTYADSVKGRFTISRDNAKNTVYLQMNSLKPEDTAVYYCAAGRQYRFDFWGQGTQVTVSS	high polyreactivity
QVQLVESGGGLVQAGGSLRLSCDASGIIFKYNAMGWYRQAPGKERELVAAITRRGGITYYADSVKGRFTISRDNAKNTVYLQMNSLKPEDTAVYYCAADLVYYHYYPWFYYWGQGTQVTVSS	high polyreactivity
QVQLVESGGGLVQAGGSLRLSCAASGYIFSYYAMGWYRQAPGKEREFVAAIRWRGGSTYYADSVKGRFTISRDYAKNTVYLQMNSLKPEDTEVYYCAAGPATSYYWGQGTQVTVSS	high polyreactivity
QVQHVESGGGLVQAGGSLRISCAASGSIFYYNAMGWYRQAPGKERELVAAISWGDGITYYADSVKGRFTISRDNAKNTVYLQMNSLKPEDTAVYYCAVDYYYLAYEYWGQGTQVTVSS	high polyreactivity
QVQLVESGGGLVQAGGSLRLSCAASGITSQSYAMGWYRQAPGKERELVAGISASGGRTFYADSVKGRFTISRDNAKNTVYLQMNSLKPEDTAVYYCNKLSSDSYNYWGQGTQVTVSS	high polyreactivity
QVQLVESGGGVVQAGGSLRLSCAASGRIFGPNDMGWYRQAPGKGRELVAAITDSGDITYYADSVKGRFTISRDTAKNTVNVQMNCLKPEDTAVNYFAADHTYENEYRGQGTQVTVSS	low polyreactivity
QVQLVDSGGGLVQAGGSLRLSCATSGYTFKAYAMVWYRQAPGKERELVAGISRSGGSTYYADSVKGRFTISRDNAKNTVYLQINSLKPEDTAVYYCAADSFSCETVVPSVLEFDYWGQGTQVTLSS	low polyreactivity
QVQLVESGGGLVQAGGSLRLSCAASGFTFTSYAMGWYRQAPGKEREFVAAIRRSGSGTYYADSVKGRFTISRDNAKNNVYLQMNSLKPEDTAVYYCAFVPPRLYYHYDYWGQGTQVTVSS	high polyreactivity
QVQLVESGGGLVQAGGSLRLSCAASGTFSPYAMGWYRQAPGKESELVAVITSNTGRTYADSVKGRFTISRDNAKKTVYLQMNSLKPEDTAVYYCAARSTYRHWYRTGSRFDYWGQGTQVTVSS	low polyreactivity
QVQLVESGGGLVQAGGSLRLSCAASGSTFSKYAMGWYRQAPGKERELVAAISSRGGSTYYADSVKGRFTISRDNAKNTVYLQMNSLKPEDTAVYYCATYYVYKLYYWGQGTQVTVSS	high polyreactivity
QVQLVESGGRLVQAGGSLRLSCPDSGSTFILNAMGWYRQAHGKERELVATISSSVTSTYYADSVKWRFTISRDHAKNTVYLQMNSLKPEDTAVYYCNADYYTTSYLQRFYHYGVEYDYLGQGTQVTVSS	low polyreactivity
QVQLVESGGGLVQAGGSLRLSCSSSGSIFVKNAMGWYRQAPGKERELVATISTGGRTYYADSVKGRFTISRDNAKNTVYLQMNSLIPEDTAVYYCATDFYPRYLLRTYRPYYYCGQGTQVTVSS	low polyreactivity
QVQLVESGGGLVQAGGSLRLSCAASGRIFSSYAMGWNRQAPGKERELVAAITDGDSTNYADSVKGRFTIARDNAKNTDYFQMNSLKPEDTAVYYCAVDILWYYPPGNYYYSSYDYWGQGTQVTVSS	low polyreactivity
QVQLVESGGGLVQAGGSLRLSCAASGPTNAMGWYRQAPGKERELVAAITKSGGSTYYADSVKGRFTISRDNAKNTVYLQMNSLKPEDTAVYYCALILRHTAYYYWGQGTQVTVSS	high polyreactivity
QVQLVESGGGLVQAGGSLRVSCAASGRTLRSYAMGWYRQAPGKERELVAAISRSGGSTYYADSVKGRFTISRDNAKNPVYLQMNSLKPEDTSVYYCATRYLRSLDYWGQGTQVTVSS	high polyreactivity
QVQLVESGGGLVQAGGSLRLSCAASGIIIKNYSMGWYRQAPGKEREFVAAISYSGTNTYYADSVKGRFTISRDYAKNTVYLQMNSLKPEDTAVYYCARRKTVVYLAGGRRDYYSWGQGTQVTVSS	high polyreactivity
QVQLVESGGGLVQAGGSLRLSCAASGRIIGWYAMGWYRQAPGKERELVAAISQDATRTYYADSVTGRFTISRDHAKNTVYLQMLRLKPEDTAVYNCNVVYRYAGWSYDSWGQGTQVTVSS	high polyreactivity
QVQLVESGGGLVQAGGSLRLSCAASGITFYAYAMGWYRQAPGKERELVAAITSSGSSTYYADSVKGRFTISRDNAKNTVYLQMISLKPEDSAVYYCAARRYRSVRNDYWGQGTQVTVSS	high polyreactivity
QVQLVESGGGLVQAGGSLRLSCAASGRTFHGYAMGWYRQAPGKERELVAAINWRGGSTYYADSVKGRFTISRDNAKNTVYLQMNSLKPEDTAVYYCNKRQYSARVSRSYDYWGQGTQVTVSS	high polyreactivity
QVQLVESGGGIVQAGGSLRLSCAASGSTFYKYAMGWYRQAPGKERELVASISRSGGSTSYADSVKGRFTISRDNAKNTVYLQMNSLKPEDTAVYYCAARSLSWTPYYYWGQGTQVTVSS	high polyreactivity
QVQLVESAAGLVQAGGSLSLSCAASGSILQSYAMGWYRQAPGKERELVAAISGSGGSTYYADSVKGRFTISRDNAKNTVYLQMNSLKPEDTAVYYCAKGPRYRTSRGEFGYWGQGTQVTLSS	low polyreactivity
QVQLVESGGGLVQAGGSLRLSCAASGLTFPQYAMGWYRQAPGKERELVAAISKTGGSTYYADSVKGRFTISRDNAKNTVYLQMNSLKPEDTAVYYCAAVESGDRGQRNNYWGQGTQVTVSS	high polyreactivity

Sequence	polyreactivity (PSR sort gate)
QVQLVESGGGLEQAGGRLRLSCADSRRIFGRYAMGWYRQAPGKERELVAAINQSGSTTYYADSVKGRFTISRDNAKNTVYLQMNSLKPEDTAVYYCAADGNGVDYDYWGQGTQVTVSS	low polyreactivity
QVQLVESGGGLVQAGGSLRLSCAASGRIFSVNGMGWYRQAPGKERELVAAITYNGGRTYYADSVKGRITISRDNAKNTVYLQMNSLKPEDTAVYYCAVESVRHPLDWYYYWGQGTQVTVSS	low polyreactivity
QVQLVESGGGLVQAGGSLRLSCAASGFIIIGYVMGWYRQAPGKERELVAAITSSGGSTYYEDSVKGRFTISRDNAKNTVYLQMNSLKPEDTAVYYCAAEYYLLWSGMEYWGQGTQVTVSS	low polyreactivity
QVQLVESGGGLVQAGGSLRLSCAASGFDFSYYDMGWYRQAPGKEREFVASIDWSGGSTYYADSVKGRFTISRDNAKNTDYLQMNSLKAEATAVYYCAAELDYFPGYDYWGQGTQVTVSS	low polyreactivity
QVQLVESGGGLVQAGGSLRLSCAASGYIFERNAMGWYRQAPGKERELVAAITDDGDDTYYADSVKGRFTISRDNAKNTVYLQMNSLKAEDTAVYYCAKDLYYGDYYYWGQGTQVTVSS	low polyreactivity
QVQLVESGGGLVQAGGSLRLSCAASGRIFQYYAMGWYRQAPGKERELVAAISGRGTSTYYADSVKGRFTISRDNAKNTVYLQMNRLKPEDTAVYYCNADINYKSYFIHTFTIIPYGYWGQGTLVTVSS	low polyreactivity
QVQLVESGGGLVQAGGSLRLSCASSGFTFTSYAMGWYRQAPGKERELVAAISSSGGSTYYADSVKGRFTISRDNAKNTVYLQMNSLKPEDTAVYYCAAEYGYGEMDSWGQGTQVTVSS	high polyreactivity
QVQLVESGGGLVQAGGSLRLSCAASGRTFPYYAMGWYRQAPGKETELVASISYRGGNTYYADSVKGRFTISRDNAKNTVYLQMNSQKPEDTAVYYCAKTGRYSARDDYWGQGTQVTVSS	high polyreactivity
QVQLVESGGGLVQAGGSLRLSCAASGSTFEYNAMGWYRQAPGKEREFVAASSRTGSRTYYADSVKGRFTISRDNAKHTVYLQMNSLKPEDTAVYYCAVSVPYGMDYWGQGTQLTVSS	high polyreactivity
QVQLVESGGGLVQAGGSLRLSCAASAFTFYSNAMGWYRQAPGTEREVVASISASGGSTYYADSVKGRFTISRDNAKNSVYLQMNSLKPEDTAVYYCAVYWSYLFDYLGQGTQVTVSS	high polyreactivity
QVQLVESGGGLVQAGGSLRLSCAASGITFEVYDMGWYRQAPGKERELVAAITWSAGRTYYADSVKGRFTISRDNAKNTVYLQMNSLKPEDTAVYYCAAEVYYYYRTYSYIWNRVDYDYWGQGTQVTVSS	low polyreactivity
QDQLVESGGGLVQAGGSLRLSCAASGRIFDLYAMGWYRQAPGKERELVATISTRGGRTYYADSVKGRFTISRDNAKNTVYLQMKRLKPEDTAVYYWNARYLGYGWFDYWGQGTQVTVSS	low polyreactivity
QVQLVESGGGLVQAGGSLRLSCAATGGIFNVYVMGWYRHAPGKESEFVAAITWRGGSTYYADSVKGRFTISRDNAKNTVYLQMNSLKPEDTAVYYCNADAPFQSSSDGYQVEYWGQGTQVTVSS	low polyreactivity
QVQLVESGGGLVQAGGSLRLSCAASGSIFWGYAMGWYRQAPGKERELVATITYGGDSTYYADSVKGRFTISRDNAKNTVYLQMNSLKPEDTAVYYCNVGVEPYDYDYWGQGTQVTVSS	low polyreactivity
QVQLVESGGGLVQAGGSLRFSCAASGSTFIGYAMGWYRQAPGKERELVAGISRGGRTNYADSVKGRFTISRDNAKHTVYLQMNSLKPEDTAVYYCAAGYRRYYEGFWVIQMNYWGQGTQVTVSS	high polyreactivity
QVQLVESGGGLVQAGGSLRLSCAASGRTFYSYAMGWYRQAPGTERELVAAITSSGGRTYYADSVKGRFTISRDNAKNTVYLQMNSLKPEDTAVYYCAAKWITRRGGDFDYWGQGTQVTVSS	high polyreactivity
QVQLVESGGGLVQAGGSLRLSCAASGLIFYDNLGWYRQAPGKDRELVAAISSSGGSTSYADSVKGRFTISRDNAKNTVYLPMNSLKPEDTAVYYCAAKWSHVRDGPKYDYWGQGTQVTVSS	low polyreactivity
QVQLVESGGGLVQAGGSLRLSCAASGSTFRYYAMGWYRQAPGKERELVAGITNGGRTNYADSVQGRFTISRDNAKNTVYLQMHSLKPEDTAVYYCAADLAWRRIGYNYWGQGTQVTVSS	high polyreactivity
QVQLVESGGGLVQAGGSLRLSCAATGSTFTFNAMGWYRQAPGKEREFVAAITASGGRTYYADSVKGRFTISRDNAKNTVYLQMNSLKPEDTAVYYCAADACLLGPGDFNYWGQGTQVTVSS	low polyreactivity
QVHLVESGGGLVKAGGSLRLSCAASGLIFTQYSMGWYRQAPGTERELVAGITSSGGSTNYADSVKGRFTISRDNAKNTVYLQMNSLKPEDTAVYYCATRLGVLYDYWGQGTQVTVSS	low polyreactivity
QVQLVESGGGLVQAGGSLSLSCAASGSILVPYTMGWYRQAPGKERELVASISYSGGSTYADSVKGRFTISRDNAKNTVYLQMNSLKPEDTAVYYCAASLPPWYPGDDFYYWGQGTQVTVSS	low polyreactivity
